Reference: patent US8178319B2, “Peptides and uses thereof” (priority 2008, dated 2012)

B1: rAAL: Recombinant full length His-tagged Aleuria aurantia lectin (protein, UniProt P18891 2-313, looked up)
Fucose-specific lectin: PTEFLYTSKIAAISWAATGGRQQRVYFQDLNGKIREAQRGGDNPWTGGSSQNVIGEAKLFSPLAAVTWKSAQGIQIRVYCVNKDNILSEFVYDGSKWITGQLGSVGVKVGSNSKLAALQWGGSESAPPNIRVYYQKSNGSGSSIHEYVWSGKWTAGASFGSTVPGTGIGATAIGPGRLRIYYQATDNKIREHCWDSNSWYVGGFSASASAGVSIAAISWGSTPNIRVYWQKGREELYEAAYGGSWNTPGQIKDASRPTPSLPDTFIAANSSGNIDISVFFQASGVSLQQWQWISGKGWSIGAVVPTGTPAGW
modifications: His-tag
notes: Recombinant full length His-tagged Aleuria aurantia lectin
B2: Mono-F2: Recombinant His-tagged monovalent fucose-binding fragment of Aleuria aurantia lectin, site 2 (AAL aa 51-161) (protein, listed as Aleuria aurantia)
chain: SQNVIGEAKLFSPLAAVTWKSAQGIQIRVYCVNKDNILSEFVYDGSKWITGQLGSVGVKVGSNSKLAALQWGGSESAPPNIRVYYQKSNGSGSSIHEYVWSGKWTAGASFG
modifications: His tag
B3: Mono-F2-T: Mono-F2 pre-treated with thrombin protease to remove the His-tag (protein, listed as Aleuria aurantia)
chain: B2 chain
modifications: His-tag removed by thrombin

Assays:
[1] = system: wheat-germ agglutinin isolated B-domain (WGA-B); conditions: monovalent form of wheat-germ agglutinin (B-domain); Espinosa et al, 2000; cited from earlier work
[2] = system: human type 0 erythrocytes; test: Hemagglutination activity with human type 0 erythrocytes; type: cell-based; conditions: 2% human type 0 erythrocytes in PBS, room temperature, 1 h; for minimum lectin concentration that gave hemagglutination (molar): approximate conversion of μg/ml
Method: The hemagglutination activity of full length rAAL and Mono-F2 (SEQ ID NO: 4) was determined by serial dilutions of the lectins in PBS and mixing with an equal volume (50μL) of 2% human type 0erythrocytes suspended in PBS. After incubation at room temperature for 1h the minimum lectin concentration that gave a positive reaction was determined.

[3] = ELISA binding of biotinylated lectin to oligosaccharide glycoconjugates; conditions: for ELISA binding to non-fucosylated oligosaccharide LNT: LNT-BSA coated wells, absorbance 405 nm; for ELISA binding specificity towards fucosylated oligosaccharides: LNnF I, LNF II, LNF III, B-tri, SLex, SLea conjugates, absorbance 405 nm (FIG. 7)
Method: Purified Mono-F2 (SEQ ID NO: 4) and full length rAAL were biotinylated using IMMUNOPROBE™ Biotinylation Kit (Sigma-Aldrich, Stockholm, Sweden) according to the manufacturer's instruction. The biotin/protein ratio was determined to 1.1 biotin moieties per protein molecule for both Mono-F2 (SEQ ID NO: 4) and rAAL. Microtiter plates (Nunc MaxiSorp™ eBioscience, San Diego, CA) were coated with 0.2 μg of LNnF I-BSA, LNF II-BSA, LNF III-HSA, LNT-BSA; 0.1 μg of B-tri-HSA, SLex-HSA and SLea-HSA in 100 μL coating buffer (15 mM Na2CO3, 35 mM NaHCO3, 0.02% NaN3, pH 9.6). Then 100 μL of biotinylated Mono-F2 (SEQ ID NO: 4) or full length rAAL was added to the wells. After addition of ExtrAvidin (E-2632 Sigma-Aldrich, Stockholm, Sweden) and phosphatase substrate (Sigma 104®, Sigma-Aldrich, Stockholm, Sweden) the amount of Mono-F2 (SEQ ID NO: 4) or full length AAL binding to each well were measured at 405 nm using a VERSAmax microplate reader (Molecular Devices Corporation, Sunnyvale, CA).
To analyze whether the His-tag on Mono-F2 (SEQ ID NO: 4) affected the fucose binding the ELISA analysis was also performed using Mono-F2 (SEQ ID NO: 4) pre-treated with thrombin protease to remove the His-tag. Biotin labelled Mono-F2 (SEQ ID NO: 4) (50μg) in PBS was incubated with 2 units of thrombin protease (Amersham Biosciences, Uppsala, Sweden) for 2 hours at room temperature.

[4] = Oligosaccharide affinity chromatography on silica column with immobilized Mono-F2; type: binding, human
Method: FIG. 5 - chromatograms of some fucosylated human milk oligosaccharides (LNnF I, LNF II and LNF III) and a non-fucosylated control (LNT) on a silica column with immobilized Mono-F2 (SEQ ID NO: 4).
Mono-F2 (SEQ ID NO: 4) was immobilized on silica particles (5μM, 300 Å) and packed in an affinity column (50×0.32 mm) and chromatography of a number of oligosaccharides were examined. […] Elutions of oligosaccharides were detected by UV absorbance at 210 nm.

[5] = Affinity chromatography on fucose-agarose column; type: binding
Method: Purified Mono-F2 (SEQ ID NO: 4) was analyzed on a 1 mL fucose-agarose column (Sigma-Aldrich, Stockholm, Sweden). The column was equilibrated with 20mL PBS. Mono-F2 (SEQ ID NO: 4) was added and the column was incubated for 20 minutes at 4° C. with gentle rocking. After incubation the column was washed with PBS until the absorbance at 280 nm had reached zero. Elution was performed with 4 mL of 0.15 M L-fucose in PBS, 4 mL of 1 M L-fucose in PBS, and lastly with glycine buffer pH 2.5. Fractions (1 mL) were collected with monitoring of absorbance at 280 nm. The fractions were further analysed by SDS-PAGE.

| Molecule | minimum lectin concentration that gave hemagglutination [2] [µg/mL] | minimum lectin concentration that gave hemagglutination (molar) [2] [µM] | ELISA binding to non-fucosylated oligosaccharide LNT [3] | ELISA binding specificity towards fucosylated oligosaccharides [3] | also measured |
| --- | --- | --- | --- | --- | --- |
| CC(=O)N[C@H]1[C@H](O[C@H]2[C@H](O)[C@@H](NC(C)=O)C(O)O[C@@H]2CO)O[C@H](CO)[C@@H](O[C@@H]2O[C@H](CO)[C@@H](O)[C@H](O)[C@H]2NC(C)=O)[C@@H]1O (stereo partly drawn) [chitotriose, N,N′, N″-triacetylchitotriose] |  |  |  |  | binding affinity [1]: millimolar range |
| B1 | 2.5 | ~0.071 | only low background binding | bound to all fucosylated oligosaccharides |  |
| B2 | > 200 | > 14 | only low background binding | binding only non-sialylated oligosaccharide structures with α1-2 or α1-4 linked fucose | retention of non-fucosylated LNT on immobilized Mono-F2 column ([4]; LNT (non fucosylated) control): not bound to the column; retention of fucosylated oligosaccharides LNF I, LNF II and LNF III on immobilized Mono-F2 column ([4]; increasing retention times LNF I, LNF II, LNF III, UV 210 nm): retarded on the column; elution from fucose-agarose column with 0.15 M L-fucose ([5]; 4 mL of 0.15 M L-fucose in PBS): could not be eluted; elution from fucose-agarose column with 1 M L-fucose ([5]; 4 mL of 1 M L-fucose in PBS): Very little was eluted; binding to immobilized fucose (conclusion; low-pH buffer needed for full elution) ([5]; glycine buffer pH 2.5 needed for full elution): high affinity binding to fucose |
| B3 |  |  |  |  | ELISA binding compared with non-treated Mono-F2 ([3]; LNnF I-, LNF II- and LNF III-BSA conjugates, His-tag removed with thrombin (FIG. 8)): identical binding |
